Laboratory results reported in the supplement of paper PMC12855868.

B1: library; numbered along this chain (parent)
chain: MAAAGGARLLRAASAVLGGPAGRWLHHAGSRAGSSGLLRNRGPGGSAEASRSLSVSARARSSSEDKITVHFINRDGETLTTKGKVGDSLLDVVVENNLDIDGFGACEGTLACSTCHLIFEDHIYEKLDAITDEENDMLDLAYGLTDRSRLGCQICLTKSMDNMTVRVPETVADARQSIDVGKTS

Variants of: B1
Assay: scaled log2 fold change in cell abundance, elesclomol vs control (0 = silent mean, 1 = nonsense mean) (scaled log2 ratio); higher = higher viability under elesclomol (loss of FDX1 cuproptosis function)
Details: glucose 10 mM
[1] = with ABC1 FDX1 KO, elesclomol 5 nM, 14 days
[2] = with HEK293T FDX1 KO, elesclomol 40 nM, 11 days
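Also: variant abundance is its share of total variant reads in each endpoint sample, from next-generation sequencing of the integrated ORF PCR-amplified out of genomic DNA.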

Variant: MAAAGGARLLRAASAVLGGPAGRWLHHAGSRAGSSGLLRNRGPGGSAEASRSLSVSARARSSSEDKITVHFINRDGETLTTKGKVGDSLLDVVVENNLDIDGFGACEGTLACSTCHLIFEDHIYEKLDAITDEENDMLDLAYGLTDRSRLGCQICLTKSMDNMTVRCPETVADARQSIDVGKTS
- scaled log2 fold change [1]: -0.124
- scaled log2 fold change [2]: 0.517

Variant: MAAAGGARLLRAASAVLGGPAGRWLHHAGSRAGSSGLLRNRGPGGSAEASRSLSVSARARSSSEDKITVHFINRDGETLTTKGKVGDSLLDVVVENNLDIDGFGACEGTLACSTCHLIFEDHIYEKLDAITDEENDMLDLAYGLTDRSRLGCQICLTKSMDNMTVRFPETVADARQSIDVGKTS
- scaled log2 fold change [1]: 0.518

Variant: MAAAGGARLLRAASAVLGGPAGRWLHHAGSRAGSSGLLRNRGPGGSAEASRSLSVSARARSSSEDKITVHFINRDGETLTTKGKVGDSLLDVVVENNLDIDGFGACEGTLACSTCHLIFEDHIYEKLDAITDEENDMLDLAYGLTDRSRLGCQICLTKSMDNMTVRAPETVADARQSIDVGKTS
- scaled log2 fold change [1]: -0.622
- scaled log2 fold change [2]: 0.856

Variant: MAAAGGARLLRAASAVLGGPAGRWLHHAGSRAGSSGLLRNRGPGGSAEASRSLSVSARARSSSEDKITVHFINRDGETLTTKGKVGDSLLDVVVENNLDIDGFGACEGTLACSTCHLIFEDHIYEKLDAITDEENDMLDLAYGLTDRSRLGCQICLTKSMDNMTVRNPETVADARQSIDVGKTS
- scaled log2 fold change [1]: 0.111
- scaled log2 fold change [2]: -0.228

Variant: MAAAGGARLLRAASAVLGGPAGRWLHHAGSRAGSSGLLRNRGPGGSAEASRSLSVSARARSSSEDKITVHFINRDGETLTTKGKVGDSLLDVVVENNLDIDGFGACEGTLACSTCHLIFEDHIYEKLDAITDEENDMLDLAYGLTDRSRLGCQICLTKSMDNMTVRIPETVADARQSIDVGKTS
- scaled log2 fold change [1]: -0.468
- scaled log2 fold change [2]: 0.138

Variant: MAAAGGARLLRAASAVLGGPAGRWLHHAGSRAGSSGLLRNRGPGGSAEASRSLSVSARARSSSEDKITVHFINRDGETLTTKGKVGDSLLDVVVENNLDIDGFGACEGTLACSTCHLIFEDHIYEKLDAITDEENDMLDLAYGLTDRSRLGCQICLTKSMDNMTVREPETVADARQSIDVGKTS
- scaled log2 fold change [1]: 0.136
- scaled log2 fold change [2]: 0.156

Variant: MAAAGGARLLRAASAVLGGPAGRWLHHAGSRAGSSGLLRNRGPGGSAEASRSLSVSARARSSSEDKITVHFINRDGETLTTKGKVGDSLLDVVVENNLDIDGFGACEGTLACSTCHLIFEDHIYEKLDAITDEENDMLDLAYGLTDRSRLGCQICLTKSMDNMTVRGPETVADARQSIDVGKTS
- scaled log2 fold change [1]: 0.269
- scaled log2 fold change [2]: 0.997

Variant: MAAAGGARLLRAASAVLGGPAGRWLHHAGSRAGSSGLLRNRGPGGSAEASRSLSVSARARSSSEDKITVHFINRDGETLTTKGKVGDSLLDVVVENNLDIDGFGACEGTLACSTCHLIFEDHIYEKLDAITDEENDMLDLAYGLTDRSRLGCQICLTKSMDNMTVRLPETVADARQSIDVGKTS
- scaled log2 fold change [1]: -0.207
- scaled log2 fold change [2]: -0.904

Variant: MAAAGGARLLRAASAVLGGPAGRWLHHAGSRAGSSGLLRNRGPGGSAEASRSLSVSARARSSSEDKITVHFINRDGETLTTKGKVGDSLLDVVVENNLDIDGFGACEGTLACSTCHLIFEDHIYEKLDAITDEENDMLDLAYGLTDRSRLGCQICLTKSMDNMTVRKPETVADARQSIDVGKTS
- scaled log2 fold change [1]: 0.318
- scaled log2 fold change [2]: 0.00856

Variant: MAAAGGARLLRAASAVLGGPAGRWLHHAGSRAGSSGLLRNRGPGGSAEASRSLSVSARARSSSEDKITVHFINRDGETLTTKGKVGDSLLDVVVENNLDIDGFGACEGTLACSTCHLIFEDHIYEKLDAITDEENDMLDLAYGLTDRSRLGCQICLTKSMDNMTVRDPETVADARQSIDVGKTS
- scaled log2 fold change [1]: 0.489
- scaled log2 fold change [2]: 0.995

Variant: MAAAGGARLLRAASAVLGGPAGRWLHHAGSRAGSSGLLRNRGPGGSAEASRSLSVSARARSSSEDKITVHFINRDGETLTTKGKVGDSLLDVVVENNLDIDGFGACEGTLACSTCHLIFEDHIYEKLDAITDEENDMLDLAYGLTDRSRLGCQICLTKSMDNMTVRMPETVADARQSIDVGKTS
- scaled log2 fold change [1]: 0.222
- scaled log2 fold change [2]: -0.0856

Variant: MAAAGGARLLRAASAVLGGPAGRWLHHAGSRAGSSGLLRNRGPGGSAEASRSLSVSARARSSSEDKITVHFINRDGETLTTKGKVGDSLLDVVVENNLDIDGFGACEGTLACSTCHLIFEDHIYEKLDAITDEENDMLDLAYGLTDRSRLGCQICLTKSMDNMTVRHPETVADARQSIDVGKTS
- scaled log2 fold change [1]: 0.217
- scaled log2 fold change [2]: 1.13

Variant: MAAAGGARLLRAASAVLGGPAGRWLHHAGSRAGSSGLLRNRGPGGSAEASRSLSVSARARSSSEDKITVHFINRDGETLTTKGKVGDSLLDVVVENNLDIDGFGACEGTLACSTCHLIFEDHIYEKLDAITDEENDMLDLAYGLTDRSRLGCQICLTKSMDNMTVSVPETVADARQSIDVGKTS
- scaled log2 fold change [1]: 0.275
- scaled log2 fold change [2]: -0.368

Variant: MAAAGGARLLRAASAVLGGPAGRWLHHAGSRAGSSGLLRNRGPGGSAEASRSLSVSARARSSSEDKITVHFINRDGETLTTKGKVGDSLLDVVVENNLDIDGFGACEGTLACSTCHLIFEDHIYEKLDAITDEENDMLDLAYGLTDRSRLGCQICLTKSMDNMTVTVPETVADARQSIDVGKTS
- scaled log2 fold change [1]: 0.529
- scaled log2 fold change [2]: -0.473

Variant: MAAAGGARLLRAASAVLGGPAGRWLHHAGSRAGSSGLLRNRGPGGSAEASRSLSVSARARSSSEDKITVHFINRDGETLTTKGKVGDSLLDVVVENNLDIDGFGACEGTLACSTCHLIFEDHIYEKLDAITDEENDMLDLAYGLTDRSRLGCQICLTKSMDNMTVYVPETVADARQSIDVGKTS
- scaled log2 fold change [1]: 0.394
- scaled log2 fold change [2]: 1.92

Variant: MAAAGGARLLRAASAVLGGPAGRWLHHAGSRAGSSGLLRNRGPGGSAEASRSLSVSARARSSSEDKITVHFINRDGETLTTKGKVGDSLLDVVVENNLDIDGFGACEGTLACSTCHLIFEDHIYEKLDAITDEENDMLDLAYGLTDRSRLGCQICLTKSMDNMTVVVPETVADARQSIDVGKTS
- scaled log2 fold change [1]: -0.116
- scaled log2 fold change [2]: 0.509

Variant: MAAAGGARLLRAASAVLGGPAGRWLHHAGSRAGSSGLLRNRGPGGSAEASRSLSVSARARSSSEDKITVHFINRDGETLTTKGKVGDSLLDVVVENNLDIDGFGACEGTLACSTCHLIFEDHIYEKLDAITDEENDMLDLAYGLTDRSRLGCQICLTKSMDNMTVWVPETVADARQSIDVGKTS
- scaled log2 fold change [1]: -0.00581
- scaled log2 fold change [2]: 0.748
